Drawing on paper PMC5748838, “SUMO chain formation relies on the amino-terminal region of SUMO-conjugating enzyme and has dedicated substrates in plants” (Biochemical Journal, 2017), this text covers Kd for one molecule.

What all share (assay): ITC; SCE at 60 µM in the cell (300 µl loaded), SUMO1-Flag-His at 600 µM in the syringe; 20 injections; 25°C; 20 mM Tris, 5 mM MgCl2, pH 7.4; MicroCal ITC 200
Settings in all cases: both partners purified

One assay concerns the target T1, SCE K28R (Arabidopsis, UniProt Q42551 1-160, K28R).
T1 construct: SUMO-conjugating enzyme SCE1, Arabidopsis thaliana, AT3G57870, with K28R; source: MonoS ion exchange for ITC
T1 sequence (looked up): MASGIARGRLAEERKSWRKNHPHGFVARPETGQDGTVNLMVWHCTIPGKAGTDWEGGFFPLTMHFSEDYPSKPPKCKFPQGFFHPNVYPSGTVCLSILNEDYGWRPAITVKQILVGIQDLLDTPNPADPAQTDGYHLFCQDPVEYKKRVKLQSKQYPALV

In assay [1] the target is T2, Arabidopsis SUMO-conjugating enzyme SCE1, wild type (Arabidopsis, UniProt Q42551 1-160).
T2 construct: SUMO-conjugating enzyme SCE1, Arabidopsis thaliana, AT3G57870; also called SCE WT; WT SCE; source: MonoS ion exchange for ITC
T2 sequence (looked up): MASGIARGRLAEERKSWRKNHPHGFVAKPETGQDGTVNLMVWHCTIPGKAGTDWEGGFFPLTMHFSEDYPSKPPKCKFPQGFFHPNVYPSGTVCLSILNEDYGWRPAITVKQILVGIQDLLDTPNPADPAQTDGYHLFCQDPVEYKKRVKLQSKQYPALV

Another assay concerns the target T3, SCE K15R (Arabidopsis, UniProt Q42551 1-160, K15R).
T3 construct: SUMO-conjugating enzyme SCE1, Arabidopsis thaliana, AT3G57870, with K15R; also called SCE1 K15R; source: MonoS ion exchange for ITC
T3 sequence (looked up): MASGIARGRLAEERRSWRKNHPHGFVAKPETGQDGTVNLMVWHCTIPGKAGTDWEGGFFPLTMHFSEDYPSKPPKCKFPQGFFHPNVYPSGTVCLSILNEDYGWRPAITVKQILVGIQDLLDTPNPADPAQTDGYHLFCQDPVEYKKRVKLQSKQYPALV

B1: SUMO1-Flag-His (natural protein, Arabidopsis, UniProt P55852 1-93, looked up)
chain: MSANQEEDKKPGDGGAHINLKVKGQDGNEVFFRIKRSTQLKKLMNAYCDRQSVDMNSIAFLFDGRRLRAEQTPDELDMEDGDEIDAMLHQTGG
notes: SUMO1 (small ubiquitin-related modifier 1), Arabidopsis; The SUMO preparations are conjugated in vitro without a protease, so the processed form ending in Gly-Gly is surmised; also called N-terminally tagged SUMO (Flag-His); source: purified (Ni2+ resin, then MonoQ ion exchange for ITC); not shown: Flag, N-terminal, kept; His, N-terminal, kept
Turning to B1, the Kd in the assay with SCE K28R is 270 ± 330 µM; in assay [1], 710 ± 230 µM; with SCE K15R it was 33 ± 17 µM.
